Experimental data reported in the supplement of paper PMC11908140.

B1: library; numbered along this chain (parent)
chain: MRKPRAAVGSGHRKQAASQEGRQKHAKNNSQAKPSACDGLARQPEEVVLQASVSSYHLFRDVAEVTAFRGSLLSWYDQEKRDLPWRRRAEDEMDLDRRAYAVWVSEVMLQQTQVATVINYYTGWMQKWPTLQDLASASLEEVNQLWAGLGYYSRGRRLQEGARKVVEELGGHMPRTAETLQQLLPGVGRYTAGAIASIAFGQATGVVDGNVARVLCRVRAIGADPSSTLVSQQLWGLAQQLVDPARPGDFNQAAMELGATVCTPQRPLCSQCPVESLCRARQRVEQEQLLASGSLSGSPDVEECAPNTGQCHLCLPPSEPWDQTLGVVNFPRKASRKPPREESSATCVLEQPGALGAQILLVQRPNSGLLAGLWEFPSVTWEPSEQLQRKALLQELQRWAGPLPATHLRHLGEVVHTFSHIKLTYQVYGLALEGQTPVTTVPPGARWLTQEEFHTAAVSTAMKKVFRVYQGQQPGTCMGSKRSQVSSPCSRKKPRMGQQVLDNFFRSHISTDAHSLNSAAQ

Variants of: B1
Experiment: 8OG:A repair function score (normalized; synonymous = 0, nonsense = -1) (normalized log-likelihood score); higher = more repair activity (WT-like)
Conditions: with 8OG:A DNA repair reporter (GFP) in HEK-293 MUTYH KO cells
Summary of the method: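 MUTYH knockout HEK-293 cells carrying lentiviral MUTYH cDNA NNN codon-scan libraries were grown with 10 pg/ml doxycycline and co-transfected with mCherry and a GFP reporter of 8OG:A repair. Viable mCherry+ cells were sorted at 72 h into GFP+ (repair) and GFP− bins, with three replicates per tile, and tile amplicons were sequenced. Rosace fitness scores for each tile were turned into a normalized repair function score anchored on the synonymous and nonsense distributions. Synonymous medians were set to 0 and nonsense medians to -1, and variants below 300 counts per million at the start were dropped.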

Variant | 8OG:A repair function score
MRKPRAAVGSGHRKQAASQEGRQKHAKNNSQAKPSACDGLARQPEEVVLQASVSSYHLFRDVAEVTAFRGSLLSWYDQEKRDLPWRRRAEDEMDLDRRAYAVWVSEVMLQQTQVATVINYYTGWMQKWPTLQDLASASLEEVNQLWAGLGYYSRGRRLQEGARKVVEELGGHMPRTAETLQQLLPGVGRYTAGAIASIAFGQATGVVDGNVARVLCRVRAIGADPSSTLVSQQLWGLAQQLVDPARPGDFNQAAMELGATVCTPQRPLCSQCPVESLCRARQRVEQEQLLASGSLSGSEDVEECAPNTGQCHLCLPPSEPWDQTLGVVNFPRKASRKPPREESSATCVLEQPGALGAQILLVQRPNSGLLAGLWEFPSVTWEPSEQLQRKALLQELQRWAGPLPATHLRHLGEVVHTFSHIKLTYQVYGLALEGQTPVTTVPPGARWLTQEEFHTAAVSTAMKKVFRVYQGQQPGTCMGSKRSQVSSPCSRKKPRMGQQVLDNFFRSHISTDAHSLNSAAQ [P299E] | -0.036
MRKPRAAVGSGHRKQAASQEGRQKHAKNNSQAKPSACDGLARQPEEVVLQASVSSYHLFRDVAEVTAFRGSLLSWYDQEKRDLPWRRRAEDEMDLDRRAYAVWVSEVMLQQTQVATVINYYTGWMQKWPTLQDLASASLEEVNQLWAGLGYYSRGRRLQEGARKVVEELGGHMPRTAETLQQLLPGVGRYTAGAIASIAFGQATGVVDGNVARVLCRVRAIGADPSSTLVSQQLWGLAQQLVDPARPGDFNQAAMELGATVCTPQRPLCSQCPVESLCRARQRVEQEQLLASGSLSGSDDVEECAPNTGQCHLCLPPSEPWDQTLGVVNFPRKASRKPPREESSATCVLEQPGALGAQILLVQRPNSGLLAGLWEFPSVTWEPSEQLQRKALLQELQRWAGPLPATHLRHLGEVVHTFSHIKLTYQVYGLALEGQTPVTTVPPGARWLTQEEFHTAAVSTAMKKVFRVYQGQQPGTCMGSKRSQVSSPCSRKKPRMGQQVLDNFFRSHISTDAHSLNSAAQ [P299D] | 0.0184
MRKPRAAVGSGHRKQAASQEGRQKHAKNNSQAKPSACDGLARQPEEVVLQASVSSYHLFRDVAEVTAFRGSLLSWYDQEKRDLPWRRRAEDEMDLDRRAYAVWVSEVMLQQTQVATVINYYTGWMQKWPTLQDLASASLEEVNQLWAGLGYYSRGRRLQEGARKVVEELGGHMPRTAETLQQLLPGVGRYTAGAIASIAFGQATGVVDGNVARVLCRVRAIGADPSSTLVSQQLWGLAQQLVDPARPGDFNQAAMELGATVCTPQRPLCSQCPVESLCRARQRVEQEQLLASGSLSGSGDVEECAPNTGQCHLCLPPSEPWDQTLGVVNFPRKASRKPPREESSATCVLEQPGALGAQILLVQRPNSGLLAGLWEFPSVTWEPSEQLQRKALLQELQRWAGPLPATHLRHLGEVVHTFSHIKLTYQVYGLALEGQTPVTTVPPGARWLTQEEFHTAAVSTAMKKVFRVYQGQQPGTCMGSKRSQVSSPCSRKKPRMGQQVLDNFFRSHISTDAHSLNSAAQ [P299G] | -0.0369
MRKPRAAVGSGHRKQAASQEGRQKHAKNNSQAKPSACDGLARQPEEVVLQASVSSYHLFRDVAEVTAFRGSLLSWYDQEKRDLPWRRRAEDEMDLDRRAYAVWVSEVMLQQTQVATVINYYTGWMQKWPTLQDLASASLEEVNQLWAGLGYYSRGRRLQEGARKVVEELGGHMPRTAETLQQLLPGVGRYTAGAIASIAFGQATGVVDGNVARVLCRVRAIGADPSSTLVSQQLWGLAQQLVDPARPGDFNQAAMELGATVCTPQRPLCSQCPVESLCRARQRVEQEQLLASGSLSGSFDVEECAPNTGQCHLCLPPSEPWDQTLGVVNFPRKASRKPPREESSATCVLEQPGALGAQILLVQRPNSGLLAGLWEFPSVTWEPSEQLQRKALLQELQRWAGPLPATHLRHLGEVVHTFSHIKLTYQVYGLALEGQTPVTTVPPGARWLTQEEFHTAAVSTAMKKVFRVYQGQQPGTCMGSKRSQVSSPCSRKKPRMGQQVLDNFFRSHISTDAHSLNSAAQ [P299F] | 0.00405
MRKPRAAVGSGHRKQAASQEGRQKHAKNNSQAKPSACDGLARQPEEVVLQASVSSYHLFRDVAEVTAFRGSLLSWYDQEKRDLPWRRRAEDEMDLDRRAYAVWVSEVMLQQTQVATVINYYTGWMQKWPTLQDLASASLEEVNQLWAGLGYYSRGRRLQEGARKVVEELGGHMPRTAETLQQLLPGVGRYTAGAIASIAFGQATGVVDGNVARVLCRVRAIGADPSSTLVSQQLWGLAQQLVDPARPGDFNQAAMELGATVCTPQRPLCSQCPVESLCRARQRVEQEQLLASGSLSGSNDVEECAPNTGQCHLCLPPSEPWDQTLGVVNFPRKASRKPPREESSATCVLEQPGALGAQILLVQRPNSGLLAGLWEFPSVTWEPSEQLQRKALLQELQRWAGPLPATHLRHLGEVVHTFSHIKLTYQVYGLALEGQTPVTTVPPGARWLTQEEFHTAAVSTAMKKVFRVYQGQQPGTCMGSKRSQVSSPCSRKKPRMGQQVLDNFFRSHISTDAHSLNSAAQ [P299N] | -0.099
MRKPRAAVGSGHRKQAASQEGRQKHAKNNSQAKPSACDGLARQPEEVVLQASVSSYHLFRDVAEVTAFRGSLLSWYDQEKRDLPWRRRAEDEMDLDRRAYAVWVSEVMLQQTQVATVINYYTGWMQKWPTLQDLASASLEEVNQLWAGLGYYSRGRRLQEGARKVVEELGGHMPRTAETLQQLLPGVGRYTAGAIASIAFGQATGVVDGNVARVLCRVRAIGADPSSTLVSQQLWGLAQQLVDPARPGDFNQAAMELGATVCTPQRPLCSQCPVESLCRARQRVEQEQLLASGSLSGSHDVEECAPNTGQCHLCLPPSEPWDQTLGVVNFPRKASRKPPREESSATCVLEQPGALGAQILLVQRPNSGLLAGLWEFPSVTWEPSEQLQRKALLQELQRWAGPLPATHLRHLGEVVHTFSHIKLTYQVYGLALEGQTPVTTVPPGARWLTQEEFHTAAVSTAMKKVFRVYQGQQPGTCMGSKRSQVSSPCSRKKPRMGQQVLDNFFRSHISTDAHSLNSAAQ [P299H] | 0.0118
